Measurements from PMC5551644.
Where two headings read alike, the source gives them in different places. Each block holds one substance with its values, some of them ahead of it.

Legend:
[1] = target: TGF-β2TM/TβRII binary complex (UniProt P37173); assay: SEC-MALS
[2] = target: TGF-β2TM/TβRII binary complex (UniProt P37173); assay: SEC
[3] = target: TGF-β2TM, variant of TGF-β2 bearing K25R, I92V, and K94R substitutions (human); assay: SPR
[4] = target: Transforming growth factor β2 (TGF-β2), recombinant human (human) (UniProt P61812); assay: SPR
[5] = target: Transforming growth factor β2 (TGF-β2), recombinant human (human) (UniProt P61812); assay: SPR; remark: listed apart in the source
[6] = target: TGF-β2TM/TβRII binary complex (UniProt P37173); assay: ITC
[7] = target: TGF-β2TM, variant of TGF-β2 bearing K25R, I92V, and K94R substitutions (human); assay: SPR; remark: listed apart in the source
[8] = target: Transforming growth factor β2 (TGF-β2), recombinant human (human) (UniProt P61812); assay: ITC

Substance: C-terminal portion of the betaglycan zona pellucida domain (BG_(ZP-C)) (from UniProt P26342 589-761) (domain or fragment)
Kd [3]: 325 nM | apparent KD with 2 μM TβRII [4]: 600 nM | Kd [5]: 450 nM

Substance: betaglycan orphan domain (BGO), produced in HEK-293 expi cells (from UniProt P26342 24-383) (domain or fragment)
Kd [6]: 82 nM | dH [6]: -38.8 kJ mol^–1 | stoichiometry N [6]: 1.07 sites

Substance: betaglycan zona pellucida domain (BGZP) (from UniProt P26342 450-761) (domain or fragment)
Kd [3]: 287 nM | apparent KD with 4 μM TβRII [4]: 600 nM | Kd [7]: 290 nM | Kd [5]: 450 nM

The remaining lines, values ahead:

stoichiometry N (BGO per TGF-β2TM homodimer) [1]: 1 | stoichiometry N (BGO per TGF-β2TM homodimer) [2]: 1 | Kd [3]: 98 nM
Substance: betaglycan orphan domain (BGO), produced in E. coli (from UniProt P26342 24-384) (domain or fragment)

Kd [8]: 109 nM | dH [8]: -52.6 kJ mol^–1 | stoichiometry N [8]: 1.04 sites | stoichiometry N (BG (O-ZP) per TGF-β2TM homodimer) [1]: 1 | stoichiometry N (BG (O-ZP) per TGF-β2TM homodimer) [2]: 1 | Kd [3]: 5.5 nM
Substance: full-length betaglycan extracellular domain (BG_(O-ZP)) (from UniProt P26342 24-761) (domain or fragment)
